T1: human GIP receptor (human, UniProt P48546 22-466)
T1 sequence (looked up): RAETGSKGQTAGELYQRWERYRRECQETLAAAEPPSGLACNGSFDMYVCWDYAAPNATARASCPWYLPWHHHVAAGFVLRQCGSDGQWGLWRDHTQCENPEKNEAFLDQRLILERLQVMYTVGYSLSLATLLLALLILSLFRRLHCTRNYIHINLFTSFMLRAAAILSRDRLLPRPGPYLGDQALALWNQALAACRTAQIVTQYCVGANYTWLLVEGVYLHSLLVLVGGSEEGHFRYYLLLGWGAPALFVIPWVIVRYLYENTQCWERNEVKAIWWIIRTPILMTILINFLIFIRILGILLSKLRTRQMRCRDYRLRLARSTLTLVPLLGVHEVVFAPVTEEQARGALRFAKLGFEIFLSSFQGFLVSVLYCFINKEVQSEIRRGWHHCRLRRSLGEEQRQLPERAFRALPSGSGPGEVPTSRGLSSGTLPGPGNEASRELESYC


Biological target: T1, human GIP receptor
Experiment: cell-based or functional assay

Binder	CisBio cAMP agonism % Efficacy [%]	CisBio cAMP antagonism % inhib [%]	CisBio cAMP antagonism IC50 [nM]	CisBio cAMP antagonism pIC50	DiscoveRx cAMP antagonism % inhib [%]	DiscoveRx cAMP antagonism IC50 [nM]	DiscoveRx cAMP antagonism log IC50 [log M]	DiscoveRx cAMP agonism Emax
PGTFISDYSIAMDRIKQQDFVNWLLAQR (HELM PEPTIDE1{P.G.T.F.I.S.D.Y.S.I.A.M.D.R.I.K.Q.Q.D.F.V.N.W.L.L.A.Q.R.[am]}|PEPTIDE2{[O=C(O)CCCCCCCCCCCCCCC(=O)[*:2]].[gGlu]}$PEPTIDE1,PEPTIDE2,16:R3-2:R2$$$V2.0; N-terminus assumed; SMILES CC[C@H](C)[C@H](NC(=O)[C@H](CO)NC(=O)[C@H](Cc1ccc(O)cc1)NC(=O)[C@H](CC(=O)O)NC(=O)[C@H](CO)NC(=O)[C@@H](NC(=O)[C@H](Cc1ccccc1)NC(=O)[C@@H](NC(=O)CNC(=O)[C@@H]1CCCN1)[C@@H](C)O)[C@@H](C)CC)C(=O)N[C@@H](C)C(=O)N[C@@H](CCSC)C(=O)N[C@@H](CC(=O)O)C(=O)N[C@@H](CCCNC(=N)N)C(=O)N[C@H](C(=O)N[C@@H](CCCCNC(=O)CC[C@H](NC(=O)CCCCCCCCCCCCCCC(=O)O)C(=O)O)C(=O)N[C@@H](CCC(N)=O)C(=O)N[C@@H](CCC(N)=O)C(=O)N[C@@H](CC(=O)O)C(=O)N[C@@H](Cc1ccccc1)C(=O)N[C@H](C(=O)N[C@@H](CC(N)=O)C(=O)N[C@@H](Cc1c[nH]c2ccccc12)C(=O)N[C@@H](CC(C)C)C(=O)N[C@@H](CC(C)C)C(=O)N[C@@H](C)C(=O)N[C@@H](CCC(N)=O)C(=O)N[C@@H](CCCNC(=N)N)C(N)=O)C(C)C)[C@@H](C)CC) [AT506]	5	78	147	6.8	90	91	-7	
GGTFISDYSIAMDRIKQQDFVNWLLAQR (HELM PEPTIDE1{G.G.T.F.I.S.D.Y.S.I.A.M.D.R.I.K.Q.Q.D.F.V.N.W.L.L.A.Q.R}|PEPTIDE2{[O=C(O)CCCCCCCCCCCCCCC(=O)[*:2]].[gGlu]}$PEPTIDE1,PEPTIDE2,16:R3-2:R2$$$V2.0; N-terminus assumed; SMILES CC[C@H](C)[C@H](NC(=O)[C@H](CO)NC(=O)[C@H](Cc1ccc(O)cc1)NC(=O)[C@H](CC(=O)O)NC(=O)[C@H](CO)NC(=O)[C@@H](NC(=O)[C@H](Cc1ccccc1)NC(=O)[C@@H](NC(=O)CNC(=O)CN)[C@@H](C)O)[C@@H](C)CC)C(=O)N[C@@H](C)C(=O)N[C@@H](CCSC)C(=O)N[C@@H](CC(=O)O)C(=O)N[C@@H](CCCNC(=N)N)C(=O)N[C@H](C(=O)N[C@@H](CCCCNC(=O)CC[C@H](NC(=O)CCCCCCCCCCCCCCC(=O)O)C(=O)O)C(=O)N[C@@H](CCC(N)=O)C(=O)N[C@@H](CCC(N)=O)C(=O)N[C@@H](CC(=O)O)C(=O)N[C@@H](Cc1ccccc1)C(=O)N[C@H](C(=O)N[C@@H](CC(N)=O)C(=O)N[C@@H](Cc1c[nH]c2ccccc12)C(=O)N[C@@H](CC(C)C)C(=O)N[C@@H](CC(C)C)C(=O)N[C@@H](C)C(=O)N[C@@H](CCC(N)=O)C(=O)N[C@@H](CCCNC(=N)N)C(=O)O)C(C)C)[C@@H](C)CC) [AT263]	0	69	21	6.7		74	-7.1	8

Source: patent publication US20220025010A1 (ANTAG THERAPEUTICS, published 2022)
